T1: mouse ASC (mouse, UniProt Q9EPB4 1-193)
T1 construct: recombinant mASC in ELISA and SPR; endogenous ASC of J774.A1 cells in Western blot and immunofluorescence; also called mASC
T1 sequence: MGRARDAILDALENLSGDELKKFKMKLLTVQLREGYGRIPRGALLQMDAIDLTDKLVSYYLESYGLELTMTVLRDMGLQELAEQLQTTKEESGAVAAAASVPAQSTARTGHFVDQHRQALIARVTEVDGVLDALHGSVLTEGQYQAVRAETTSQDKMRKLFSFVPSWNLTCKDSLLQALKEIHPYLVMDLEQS

T2: CARD domain of human ASC (human, UniProt Q9ULZ3 107-195)
T2 construct: biotinylated in BLI; also called hCARD; human CARD
T2 sequence: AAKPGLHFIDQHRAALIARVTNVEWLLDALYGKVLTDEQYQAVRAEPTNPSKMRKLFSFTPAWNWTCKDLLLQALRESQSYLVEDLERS


Tests used:
mouse ASC = biological target: T1, mouse ASC; test: ELISA, coated mASC
[1] = biological target: T3, human ASC (apoptosis associated speck-like protein containing a caspase-recruitment domain) (human, UniProt Q9ULZ3 1-195); test: ELISA, coated hASC;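 note: antibody binding to plate-coated recombinant human ASC, read as phosphatase substrate absorbance, EC50 from four-parameter variable-slope fit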
T3 construct: recombinant hASC in ELISA and SPR; endogenous ASC (cytoplasmic or specks) in Western blot and immunofluorescence; also called hASC; PYCARD

CARD domain of human ASC = biological target: T2, CARD domain of human ASC; test: ELISA, coated hCARD
PYD domain of human ASC = biological target: T4, PYD domain of human ASC (human, UniProt Q9ULZ3 1-91, limits assumed); test: ELISA, coated hPYD;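 note: monoclonal antibody binding to plate-coated human ASC PYD measured by ELISA, with a phosphatase substrate absorbance read-out and EC50 from a variable slope curve fit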
T4 construct: biotinylated in BLI; His/MBP-tagged in the alanine ELISA; also called hPYD; human PYD

[2] = biological target: T3, human ASC (apoptosis associated …); test: SPR, hASC immobilized, Fab in flow;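 note: hASC amine-coupled on a CM5 chip (about 500 RU), Fab analytes measured by single-cycle kinetics in PBS-P+ running buffer, glycine pH 1.7 regeneration between Fabs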

T4 sequence (Q9ULZ3 1-91 limits assumed): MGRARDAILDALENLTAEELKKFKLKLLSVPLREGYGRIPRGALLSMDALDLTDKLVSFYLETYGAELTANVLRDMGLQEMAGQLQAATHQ

| Binder | EC50 (mouse ASC) | EC50 [1] | EC50 (CARD domain of human ASC) | EC50 (PYD domain of human ASC) | binding result (CARD domain of human ASC) | binding result (mouse ASC) | binding result (PYD domain of human ASC) | Kd [2] | koff [2] | kon [2] |
| --- | --- | --- | --- | --- | --- | --- | --- | --- | --- | --- |
| ACI-8016-2614C3B2-AB1 (antibody, V domains shown) VH: QVQLQQSDAELVKPGASVKISCKVSGYALTDHSIHWMKQRPEQGLAWIGYMYPGDGSANYNDKFKGKATLTADISSSTAYMQLNSLTSEDSAVYFCTRPYYFGSSYDYFGYWGQGTTLTVSS VL: DIQMNQSPSSLSASLGDTITITCHASQNINVWLSWYQQKPGNVPKLLIYKASKLHTGVSSNFSGSGSGTGFTLTISSLQPEDIGTYYCQQGQSYPYTFGGGTKLEIK | 2.67 nM | 1.98 nM | 2.21 nM |  |  |  |  |  |  |  |
| ACI-8016-2602H6F10-AB1 (antibody, V domains shown) VH: QVQLQQSGAELARPGASVKLSCKASGFSFTSYGISWVKQRTGQGLEWIGQIYLRSSNTYYNEKFKDKATLTADKSSSTVYMELRSLTSEDSAVYFCARYYGSSSDYWGQGTTLTVSS VL: DIQMNQSPSSLSASLGDTITINCHASQNINVWLSWYQQKPGNIPKVLIYQASNLQTGVPTRFSGSGSGTGFTLTISRLQPEDIATYYCQQGQRYPWTFGGGTKLEIK | 4.52 nM | 11.1 nM |  | 2.52 nM | no binding |  |  |  |  |  |
| ACI-8016-1112B3D7-AB1 (antibody, V domains shown) VH: QVQLQQSGAELVRPGTSVKLSCKASGYTFTSYWMHWVKQRPGQGLEWIGGIDPSDSYTKYNQKFKAKATLTADTSSSTAYMQLSSLTSEDSAIFYCAREEASTVVAHWYFDVWGTGTTVTVSS VL: DIVLTQSPATLSVTPGDSVSLSCRASQSISNNLHWYQQKSHESPRLLIKYTSQSISGIPSRFSGSGSGTDYTLSINSVETEDFGMYFCQQSNNWPYTFGGGTKLEIK |  | 0.07 nM |  |  |  | no binding |  |  |  |  |
| ACI-8018-2221B7F1-AB1 (antibody, V domains shown) VH: EVQLVESGGGLVKPGGSLKLSCAASGFTFSDSYMYWLRQTPEKRLEWVASISDGGRYTYYSDSVKGRFTISRDNVKNNLYLQMTSLRSEDTAIYYCARGLDYWGQGTTLTVSS VL: DIKMTQSPSSMYASLGERVTITCKASQDINSYLSWFQQKPGKSPKTLIYRANRLVDGVPSRFSGSGSGQDYSLTISSLEYEDMGIYYCLQYAESTWTFGGGTKLEIK |  | 0.14 nM |  |  |  | no binding |  |  |  |  |
| ACI-8016-207E8B2-AB1 (antibody, V domains shown) VH: QVQLQQSGAELAKPGASVKLSCKASGYTFTSYWMHWVKQRPGQGLEWIGYINPSSGYTKCNQKFKDKATLTADKSSSTAYMQLSSLTYEDSAVYYCVFPFDYDGFDYWGQGTTLTVSS VL: DVLMTQTPLSLPVSLGDQASISCRSSQSIVHSNGNTYLEWYLQKPGQSPKLLIYKVSNRFSGVPDRFSGSGSGTVFTLKISRVEAEDLGVYYCFQDSHFPFTFGSGTKLEIK | 0.11 nM | 0.1 nM |  | 0.12 nM | no binding |  |  |  |  |  |
| ACI-8016-2A1B12-AB1 (antibody, V domains shown, also called 936.2A1B12) VH: EVQLQQSGAELVRPGSSVKMSCETSGYTFTTYGLTWVKQRPGQGLEWIGYIYVGNGYTEYNEKFKDKATLTSDTSSSIVYMQLSSLTSEDSAIYFCARLGLRRHFDYWGQGTTLTVSS VL: AIQMTQTTSSLSASLGDRVTISCRASQDISNYLHWYQQKPDGTVKLLIFFTSGLRSGVPSRFSGSGSGTDYSLTISNLEQEDIATYFCQQSILLPWTFGGGTKLEIK | 1.56 nM | 0.17 nM | 0.13 nM | 3.34 nM |  |  |  |  |  |  |
| ACI-8016-17H1G2-AB1 (antibody, V domains shown, also called 936.17H1G2) VH: EVQLQQSGAELVRPGSSVKMSCKTSGFTFTSYGISWVIQRPEQGLEWIGYIYIRNGYTEYNEKFKGKATLTSDTSSNTAYMQLSNLASEDSAIYFCVRIHRRFFDYWGQGTTLTVSS VL: DIQMTQTTSSLSASLGDRVTISCSASQGISNYLNWFQQKPNGTVRLLIYYTSSLHSGVPSRFSGSGSGTDYSLTISNLEPEDIATYYCQQYDRLPWTFGGGTKLEIK | 0.19 nM | 0.13 nM | 0.1 nM |  |  |  | no binding |  |  |  |
| hACI-8016-32B6C7-AB1_H15L3 Fab (Fab, V domains shown) VH: QVQLVQSGAEVKKPGSSVKVSCKASGYTFTDQTIHWVRQAPGQGLEWMGYIYPGDASAMYNEKFQGRVTITADKSTSTAYMELSSLRSEDTAVYYCARPLYSYASYYWFAYWGQGTLVTVSS VL: EIVLTQSPATLSLSPGERATLSCHASQNINVWLSWYQQKPGQAPRLLIYKSSNLHTGIPARFSGSGSGTDFTLTISSLEPEDFAVYYCQQGQSYPLTFGQGTKLEIK |  |  |  |  |  |  |  | 0.052 nM | 4.82e-06 s⁻¹ | 103000 M⁻¹ s⁻¹ |
| ACI-8016-19E6D4-AB1 (antibody, V domains shown, also called 936.19E6D4) VH: EVKLVESGGGLVQPGGSLKLSCAASGFTFSDYYMYWVRQNAEKRLEWVAYISSGGDAPFYSDNLKGRFTISRDNAKNTLYLQMSRLQPEDTAMYFCAREGFYYYGLYGMDYWGQGTSVTVSS VL: DIVLSQSPATLSVTPGDSVSLSCRASQSIGDNLHWYQQKSHESPRLIIKSASQSISGIPSRFSGSGSGTDFTLSINIVETEDFGMYFCQQSDTWPLTFGPGTKLELK |  | 0.1 nM | 0.09 nM |  |  | no binding | no binding |  |  |  |
| ACI-8016-3E6B11-AB1 (antibody, V domains shown, also called 936.3E6B11) VH: EVQLQQSGAELVRPGSSVKMSCKTSGYTFTNYGITWVKQRPGQGLEWIGYIYVGNGYTEYNEKFKDKAALTSDTSSSTAYMQLTSLTSDDSTIYFCARIAQGRCFDYWGQGTTLSVSS VL: DIVLTQSPASSAVSLGQRATISCRASQSVSTSSYSYMHWYQQKPGQPPKLLIKYASTLESGVPARFSGSGSGTDFTLNIHPVEEEDTATYYCQHSWELPYMFGGGTKLEIK | 0.15 nM | 0.15 nM | 0.13 nM |  |  |  | no binding |  |  |  |
| ACI-8016-11A3F3-AB1 (antibody, V domains shown, also called 936.11A3F3) VH: QVQLQQSGAELARPGTSVKLSCKASGYTFISFGLSWVKQRTGQGLEWIGEIYPRIDNPYYNEKFKGKAILTADKSSSTAYMELRSLTSEDSAVYFCARYFTKGNYFDYWGQGTTLTVSS VL: DIQMTQSPASLAASVGETVTITCRASENIYYSLAWYQQKQGKSPQVLIYYANSLEDGVPSRFSGSGSGTQYSLKINSMQPEDTATYFCKQAYDVPFTFGTGTKLELK | 0.63 nM | 0.11 nM | 0.12 nM |  |  |  | no binding |  |  |  |
| ACI-8016-14G5B8-AB1 (antibody, V domains shown, also called 936.14G5B8) VH: EVQLQESGPELVKPGSSVKISCKASGYTFADHYMNWVKQSHGKSLEWIGDINPNNGGSVYNQKFKGKATLTVDKSSSTAYMELRSLTSEDSAVYFCARRRAHYYDGPYFDYWGQGTTLTVSS VL: DIVMTQSQKFMSTSVGDRVSLTCKASQIVGTAVAWYQQKPGQSPKLLIYSASIRYTGVPDRFTGSGSGTDFTLTISNMQSEDLADYFCQQYSNYPTFGAGTKLELK | 0.16 nM | 0.09 nM | 0.17 nM |  |  |  | no binding |  |  |  |
| ACI-8016-27A1G4-AB1 (antibody, V domains shown, also called 936.27A1G4) VH: QVQLQQSDAELVKPGASVKISCKVSGYTFTDHTIHWMRQRPEQGLEWIGYIYPGDASSYYNEKFKGKATLTADQSSNTAYIQVNSLTSEDSAVYFCARPLYSYASYYWFAYWGQGTLVTVSA VL: DIQMNQSPSSLSASLGDTITITCHASQNINVWLTWYQQKPGNIPKLLIYKASNLHTDVPSRFSGSGSGTGFTLTISSLQPEDIATYYCQQGQSYPLTFGGGTKLEIK | 0.11 nM | 0.15 nM | 0.13 nM |  |  |  | no binding |  |  |  |
| ACI-8016-29C5E11-AB1 (antibody, V domains shown, also called 936.29C5E11) VH: EVQLQQSGAELVRPGSSVKMSCRTSGYTFTNNGITWVKQRPGQGLEWIGYIYVGNGYTEYNEKFKDKATLTSDTASSTVYMQLNSLTSEDSAIYFCARLDRGRALDYWAQGTTLTVSS VL: DIVLTQSPASLAVSLGQRATISCRASKSVSSSAYSYMHWYQQKPGQPPKLLIHLASNLESGVPARFSGSGSGTDFTLNIHPVEEEDAATYYCQHSWELPYTFGGGTKLEIK | 0.14 nM | 0.16 nM | 0.14 nM |  |  |  | no binding |  |  |  |
| ACI-8016-7G3B5-AB1 (antibody, V domains shown, also called 936.7G3B5) VH: EVQLQQSVAELVRPGASVKLSCTASGFNIKNTYMHWVKQRPEQGLEWIGRIDPANGNTKYVPKFQGKATITADTSSKTAYLQLSSLTSEDTAIYYCTRWGFDKDGVVYAMDYWGQGTSVTVSS VL: DVVLTQSPATLSVTPGDSVSLSCRASQSIYNNLHWYQQKSHESPRLLVKYASQSISGIPSRFSGSGSGTDFTLSINSVETEDFGMYFCQQSNSWPLTFGAGTKLELK | 0.17 nM | 0.19 nM |  | 0.16 nM | no binding |  |  |  |  |  |
| ACI-8016-2516A8C6-AB1 (antibody, V domains shown) VH: QVQLQQSGAELARPGASVKLSCKASGHTFTSYGISWVKQRTGQGLEWIGKIYPRSGNTYYDEKFKGKATLTADKPSTTAYMELRSLTSEDSAVYFCATRDYWGQGTTLTVSS VL: QIVLTQSPVIMSASPGEKVTITCSASSSVSYMYWFQQKPGTSPKFWIYSTSNLASGVPARFSGSGSGTSYSLTISRMEAEDAATYYCQQRSRYPWTFGGGTKLEIK | 0.26 nM | 0.26 nM |  | 0.16 nM | no binding |  |  |  |  |  |

From patent publication US20250320284A1 (AC IMMUNE, published 2025)
